B1: BTBD1 (parent)
chain: FVLGKGRGAAAAGGPQRIPAHRFV

Variants of: B1
Assay: protein stability index of a GFP-peptide fusion (GPS, HEK-293T) (PSI 1-6); higher = more stable
Settings: c terminus: a fixed tail appended
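Also: lentivirally expressed fusions sorted by FACS into six bins by GFP to DsRed ratio, PSI derived from sequencing read proportions per bin multiplied by bin number.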

Protein stability index: each site, then its substitutions
R17: Q 1.92 | S 1.86 | V 2.52 | H 1.86 | F 1.28 | I 3.15 | Y 1.49 | N 1.64 | K 2.01 | E 2.13 | M 1.56 | D 2.54 | W 1.41 | L 2.01 | C 1.9
A11: M 1.73 | S 2.58 | L 1.31 | N 1.71 | W 2.84 | V 1.28 | P 1.5 | R 1.41 | Y 1.63 | T 1.52
Q16: N 2.54 | R 1.9 | I 2.2 | D 1.41 | V 2.31 | A 1.6 | P 1.86 | T 1.39 | M 2.2 | S 1.9 | G 1.87 | E 1.67
F23: Q 2.19 | H 1.45 | T 2.2 | K 3.99 | V 1.93 | R 1.25 | Y 1.71 | N 1.9 | P 2.43 | M 2.58 | S 2.93 | E 2.04 | C 1.08
A20: G 1.46 | F 2.32 | R 1.35 | C 1.73 | M 2.09 | N 1.49 | Q 1.73 | S 1.53 | H 2.4 | E 2.49 | T 1.74 | L 1.76
V24: Q 1.7 | L 1.73 | K 2.12 | R 1.8 | G 1.56 | P 2.47 | T 2.84 | D 2.27 | M 3 | S 2.21
P19: L 1.5 | R 1.81 | D 1.53 | N 2.06 | S 1.31 | A 1.34 | H 1.27 | Q 2.17 | V 1.26 | T 1.88 | E 1.78 | I 2.16
H21: R 2.32 | F 4.04 | S 1.56 | N 1.88 | L 2.61 | G 1.77 | V 2.72 | Q 1.91 | D 2.22 | A 2.14 | M 3.14 | T 2.72 | P 1.97
I18: F 1.93 | W 1.91 | R 1.46 | D 2.16 | P 2.12 | Q 2.03 | N 2.12 | M 2.87 | C 2.27 | Y 1.74
G14: L 2.15 | Q 2.88 | K 2.83 | Y 1.07 | M 1.88 | D 2.64 | S 2.64 | H 1.87 | C 2.08 | I 1.26 | R 1.04 | V 1.9 | N 1.93
R22: H 1.72 | T 5.22 | S 1.36 | Q 1.84 | M 4.76 | N 2.53 | K 1.82 | G 1.08 | D 2.35 | L 2.3 | V 2.14
P15: V 1.43 | H 1.85 | N 1.52 | K 1.06 | C 3.79 | Q 1.5 | L 1.43 | R 1.99 | E 1.81 | M 2.08 | S 1.7 | T 2 | Y 1.49 | D 1.86 | W 1.03
A12: Y 1.16 | G 2.21 | E 1.84 | L 1.38 | K 1.82 | W 2.86 | D 1.91 | C 2.54 | N 1.78 | M 1.52 | Q 1.43
G13: N 2.57 | P 1.75 | M 2.07 | V 1.36 | I 2.25 | L 2.14 | R 1.41 | E 2.31 | Y 1.57 | H 1.71 | Q 2 | S 2.15 | F 1.3 | K 1.16 | D 2.24

Source: the supplement of paper PMC10567573
